Key:
[1] = target: HAx3-tagged Cho1 (phosphatidylserine synthase from Candida albicans) (Candida albicans); experiment: native gel or EMSA; BN-PAGE and anti-HA Western blot of SMA2000-solubilised membrane fractions (SMALPs), 1-4% SMA2000, 30 or 60 min, 37 °C
[2] = target: HAx3-tagged Cho1 (phosphatidylserine synthase from Candida albicans) (Candida albicans); experiment: native gel or EMSA; BN-PAGE and anti-HA Western blot of Cho1-HAx3 pulled down with anti-HA beads and eluted harshly: 50 mM NaOH + 0.05% digitonin, then 1 M Tris pH 8.5

HAx3-tagged Cho1 (phosphatidylserine synthase from Candida albicans) (from UniProt A0A1D8PF32 1-273) (enzyme)
stoichiometry N [1]: 2
stoichiometry N [2]: 2

— paper PMC10248529
